In article PMC7773337 (2020):

Molecular target: reconstituted mononucleosomes (histone octamer on Widom '601' DNA)

Row | Kd | Binder
1 | 9.13 µM | zz-LAP1B(98-136)-2E His6 (S108E, T124E) (domain or fragment) not shown
2 | 0.43 µM | zz-LAP1B(98-136)-His6 wild-type (domain or fragment) not shown
